Results: article PMC6051418

Biological target: R28A-HD5 (human)
Test: crystal structure

R28A-HD5 (peptide)
stoichiometry N: 2
